Reference: US20220064329A1 (Novo Nordisk, published 2022)

Biological target: T1, murine FVII(a) (mouse, UniProt P70375 42-446)
T1 sequence (looked up): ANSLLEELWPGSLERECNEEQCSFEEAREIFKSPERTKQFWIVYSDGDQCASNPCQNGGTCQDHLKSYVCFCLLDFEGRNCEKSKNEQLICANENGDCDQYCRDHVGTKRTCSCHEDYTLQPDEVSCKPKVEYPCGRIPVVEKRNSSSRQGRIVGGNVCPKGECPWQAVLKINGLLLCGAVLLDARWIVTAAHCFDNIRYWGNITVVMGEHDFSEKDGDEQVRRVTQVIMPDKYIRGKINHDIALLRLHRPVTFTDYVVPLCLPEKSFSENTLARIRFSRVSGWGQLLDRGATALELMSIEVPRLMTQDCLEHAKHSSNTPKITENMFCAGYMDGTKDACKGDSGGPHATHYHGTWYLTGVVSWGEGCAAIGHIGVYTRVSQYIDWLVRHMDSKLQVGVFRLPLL
Experiment: not told; stated as the reason for co-administering human FVII(a) in the mouse model

B1: biAb0001 (bispecific antibody, human IgG4 S228P, kappa)
heavy 1: QVQLQESGPGLVKPSQTLSLTCTVSGYSISSDSAWSWIRQPPGKGLEWIGYIQYSGSTNYNPSLKSRVTISRDTSKNQFSLKLSSVTAADTAVYYCARSVNYYGNSFAVGYWGQGTLVTVSSASTKGPSVFPLAPCSRSTSESTAALGCLVKDYFPEPVTVSWNSGALTSGVHTFPAVLQSSGLYSLSSVVTVPSSSLGTKTYTCNVDHKPSNTKVDKRVESKYGPPCPPCPAPEFLGGPSVFLFPPKPKDTLMISRTPEVTCVVVDVSQEDPEVQFNWYVDGVEVHNAKTKPREEQFNSTYRVVSVLTVLHQDWLNGKEYKCKVSNKGLPSSIEKTISKAKGQPREPQVYTLPPSQEEMTKNQVSLTCLVKGFYPSDIAVEWESNGQPENNYKTTPPVLDSDGSFLLYSKLTVDKSRWQEGNVFSCSVMHEALHNHYTQKSLSLSLGK
light 1: EIVLTQSPATLSLSPGERATLSCRASQGISDYLHWYQQKPGEAPRLLIKYTSQPATGIPARFSGSGSGTDFTLTISSLEPEDFAVYYCQNGHSFPLTFGQGTKLEIKRTVAAPSVFIFPPSDEQLKSGTASVVCLLNNFYPREAKVQWKVDNALQSGNSQESVTEQDSKDSTYSLSSTLTLSKADYEKHKVYACEVTHQGLSSPVTKSFNRGEC
heavy 2: not shown
light 2: DIVMTQTPLSSPVTLGQPASISCRSSQSLVHRQGNTYFHWLQQRPGQPPRLLIYKVSNRFSGVPDRFSGSGAGTDFTLKISRVEAEDVGVYYCSQSTHVPYTFGQGTKLEIKRTVAAPSVFIFPPSDEQLKSGTASVVCLLNNFYPREAKVQWKVDNALQSGNSQESVTEQDSKDSTYSLSSTLTLSKADYEKHKVYACEVTHQGLSSPVTKSFNRGEC
notes: also called anti-FVII(a)/anti-TLT-1 bispecific antibody; mAb0865 x mAb1076
  binding result: no binding
